Entries after “also recorded” stand apart in the source; their conditions may differ. Where no end group is shown, it is not given here.
Tested on: 22Rv.1 xenograft tumor
Experiment: 22Rv.1 tumor xenograft study
Type: in vivo, athymic nude mice
Settings: for tumor growth inhibition in vivo: xenografts of single 22Rv.1 clones stably expressing the peptide
Method: All animal experiments were performed according to European and German statutory regulations. For generation of xenograft models 5×10^6 LNCaP cells were resuspended in a solution of 50% Matrigel® (BD Bioscience, Heidelberg, Germany) in PBS or 5×10^6 22Rv.1 cells in 100 µl of PBS were subcutaneously injected into both flanks of 6–8 week-old athymic nude mice. Tumor size was measured with a caliper every week. Tumors derived from the injection of stable clones overexpressing the Bag-1 peptide were analyzed over a period of 9 weeks while tumors from cells transfected with the empty expression vector or expressing the N-terminal, the C-terminal and the ΔN-peptide were analyzed over 5 weeks. Tumor size was assessed measuring three perpendicular diameters according to the formula: V = (1/6) [π] (d1d2d3), where π is a mathematic constant and d1, d2 and d3 represent the three spatial dimensions (width, depth and height). Mice were euthanized by cervical dislocation and the tumors removed for further analysis.
Figure 4 The Bag-1 peptide inhibits prostate cancer cell growth in vivo. A. Stable clones of 22Rv.1 cells show reduced cell viability in vitro. Stable clones were seeded in a 96-well plate and the cell number in each well was estimated by measuring the ratio between the wavelength of excitation and emission 560/590 nm using the CellTiter-Blue™ proliferation assay. The bar charts represent the mean of at least four independent experiments ±SD (*p<0.05). B. Determination of the level of the Bag-1 expressed in the 22Rv.1 clones. Cellular extracts of 22v.1 stable clones were subjected to Western blot analysis. An anti-HA antibody was used to detect the peptide and an anti-β-actin antibody for equal loading control. C-D. The Bag-1 peptide reduces 22Rv.1 prostate tumor cell growth in vivo. Six-week old athymic nude mice were injected subcutaneously in both flanks with 5×10^6 cells of each stable clone. Tumor size was measured once per week using a caliper and expressed as tumor volume in mm^3. Shown are (C) the tumor volumes of clones transfected with empty expression vector and (D) clones expressing the Bag-1 peptide. Each point represents the mean volume and standard deviation of at least 5 to 10 tumors. E. Xenografts of stable clones expressing the Bag-1 peptide show increased apoptosis. Five-micron sections of formalin-fixed, paraffin-embedded tumor tissues were subjected to immunohistochemistry. Nuclei are stained blue-purple with hematoxylin while apoptotic cells detected with the TUNEL assay are stained brown. Representative sections of xenografts obtained from each 22Rv.1 stable clone were acquired with an Axioscop microscope (Zeiss). V: stands for empty vector expressing clone and P: peptide expressing clone.
Figure 5 An N-terminal unfolded fragment of the Bag-1 peptide is sufficient to reduce tumor cell growth. A. Schematic diagram of the Bag-1 peptide and its deletion mutants. The ubiquitin-like domain is represented in blue and the BAG domain in red. The numbers refer to the amino acid positions of the different domains. The amino acid residues are numbered following the numbering for Bag-1L. B. Prediction of the secondary structure of the Bag-1 peptide, showing an N-terminal β-hairpin from the ubiquitin-like domain (blue) and a C-terminal α-helix from the BAG domain (red). C. Normalized circular dichroism spectra of the Bag-1 peptides. 30 µM of the Bag-1 peptide were measured in 20 mM KHPO4 buffer, pH 6.8 (black line). Its α-helical content was estimated to be approximately 25% by deconvolution of the spectra (red line). 12 µM of the N-term peptide (green line) and 11 µM of C-term (blue line) were measured under the same conditions. D. ^1H^15N-HSQC NMR spectrum of ^15N-labeled Bag-1 peptide (202–269) in 20 mm KHPO4 buffer, pH 6.8, at 23°C. […] The Hδ and Hε side chain signals of asparagine and glutamine are connected by thin lines. […]

C-terminal peptide: 28 C-terminal fragment of the Bag-1 peptide (Bag-1L 241–269) (EKIADQLEELNKELTGIQQGFLPKDLQAE; not fully specified)
tumor growth inhibition in vivo: This effect was not seen

N-terminal peptide: N-terminal 40 residues of the Bag-1 peptide (Bag-1L 202–241) (TPLSALGIQDGCRVMLIGKKNSPQEEVELKKLKHLEKSVE; not fully specified)
tumor growth inhibition in vivo: reduces tumor growth in vivo; also recorded: growth inhibitory action of the peptides was also confirmed in xenograft models

ΔUbi peptide: Bag-1 peptide lacking the ubiquitin-like domain portion (Bag-1L 220–269) (KKNSPQEEVELKKLKHLEKSVEKIADQLEELNKELTGIQQGFLPKDLQAE; not fully specified)
tumor growth inhibition in vivo: This effect was not seen

B1: Bag-1 peptide: internal sequence of 68 amino acids of Bag-1 (Bag1-L 202–269), HA-tagged, expressed from pcDNA3 (peptide)
chain: TPLSALGIQDGCRVMLIGKKNSPQEEVELKKLKHLEKSVEKIADQLEELNKELTGIQQGFLPKDLQAE
modifications: also: HA tag, end not given here
tumor volume (22Rv.1 cells expressing the peptide (P42, P25 and P29), 9 weeks, empty vector: average 1.2 cm^3 in 4–8 weeks): 0.4 cm^3
Tumor weight, clone P25 (22Rv.1 clone P25, termination 7–9 weeks, mean and SD of 4–10 tumors, vector clones 1.24–1.73 g): 0.31 ± 0.14 g
Tumor weight, clone P29 (22Rv.1 clone P29, termination 9 weeks, mean and SD of 4–10 tumors, vector clones 1.24–1.73 g): 0.42 ± 0.17 g
Tumor weight, clone P42 (22Rv.1 clone P42, termination 9 weeks, mean and SD of 4–10 tumors, vector clones 1.24–1.73 g): 0.38 ± 0.20 g
tumor condition (22Rv.1 peptide clone 25, mice euthanized earlier than 9 weeks): the tumors were necrotic
